PMC3155531, “In Vitro and Ex Vivo Analysis of CHRNA3 and CHRNA5 Haplotype Expression”

Biological target: SP-1 (rhSP-1) (Homo sapiens, UniProt P08047 2-785)
Assay: EMSA; 300 ng rhSP-1, 125 fmol probe; competed by 50x/100x cold probe; Promega Gel Shift Assay System (binding buffer, salt and pH not given); 10 min preincubation then 20 min with probe at 25 C; 4% non-denaturing PAGE
Settings: protein: recombinant; label: 32P 5' end; blunt

SP-1 (rhSP-1), sequence (P08047 2-785): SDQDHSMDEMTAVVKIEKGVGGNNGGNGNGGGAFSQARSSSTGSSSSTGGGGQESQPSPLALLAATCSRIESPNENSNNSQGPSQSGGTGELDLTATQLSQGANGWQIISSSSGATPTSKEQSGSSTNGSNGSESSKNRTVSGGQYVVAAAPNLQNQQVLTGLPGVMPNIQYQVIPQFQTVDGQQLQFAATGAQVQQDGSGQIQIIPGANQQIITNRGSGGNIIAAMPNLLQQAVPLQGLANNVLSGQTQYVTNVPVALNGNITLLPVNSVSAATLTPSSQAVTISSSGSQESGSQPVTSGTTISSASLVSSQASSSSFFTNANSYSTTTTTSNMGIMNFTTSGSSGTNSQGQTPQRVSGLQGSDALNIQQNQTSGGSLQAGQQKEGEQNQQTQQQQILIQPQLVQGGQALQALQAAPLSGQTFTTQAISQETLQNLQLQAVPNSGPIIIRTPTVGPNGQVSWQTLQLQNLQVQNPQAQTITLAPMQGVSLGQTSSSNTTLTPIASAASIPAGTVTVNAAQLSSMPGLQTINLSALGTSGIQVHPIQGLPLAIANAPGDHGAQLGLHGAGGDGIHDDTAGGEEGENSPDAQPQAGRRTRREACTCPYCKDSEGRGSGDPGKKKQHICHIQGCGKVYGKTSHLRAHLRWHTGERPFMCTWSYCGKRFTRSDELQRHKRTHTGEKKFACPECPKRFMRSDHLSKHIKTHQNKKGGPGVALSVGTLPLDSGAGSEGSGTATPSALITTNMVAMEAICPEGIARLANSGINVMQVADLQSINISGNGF

B1: dsA5pInDel (CHRNA5 promoter rs3841324 region) (dsDNA)
DNA 1: GATTGGGCGGGGCCAGAGGGAAATAGGGG
DNA 2: CCCCTATTTCCCTCTGGCCCCGCCCAATC
Does B1 bind?
Result: binds
